Measured values published in PMC6221947 (Structure (London, England : 1993), 2018).

T1: Trypanosoma brucei deoxyhypusine synthase, catalytic paralog (TbDHSc), His-SUMO tag removed (T. brucei, UniProt Q38BX0 1-461)
T1 sequence: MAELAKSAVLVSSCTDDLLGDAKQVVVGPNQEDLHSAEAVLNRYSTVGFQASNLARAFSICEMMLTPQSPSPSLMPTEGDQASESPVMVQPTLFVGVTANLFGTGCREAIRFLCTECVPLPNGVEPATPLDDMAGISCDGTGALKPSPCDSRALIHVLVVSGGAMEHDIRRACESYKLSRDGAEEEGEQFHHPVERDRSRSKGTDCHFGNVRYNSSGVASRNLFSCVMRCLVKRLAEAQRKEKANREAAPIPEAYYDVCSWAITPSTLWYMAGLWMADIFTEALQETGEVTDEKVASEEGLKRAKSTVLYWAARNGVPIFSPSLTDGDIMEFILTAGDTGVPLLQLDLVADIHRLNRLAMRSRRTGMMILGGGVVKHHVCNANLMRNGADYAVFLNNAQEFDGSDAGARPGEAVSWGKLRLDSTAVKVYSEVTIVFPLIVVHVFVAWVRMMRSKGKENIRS

B1: TbDHSc:DHSp (Trypanosoma brucei brucei TREU927) (protein)
chain 1: MAELAKSAVLVSSCTDDLLGDAKQVVVGPNQEDLHSAEAVLNRYSTVGFQASNLARAFSICEMMLTPQSPSPSLMPTEGDQASESPVMVQPTLFVGVTANLFGTGCREAIRFLCTECVPLPNGVEPATPLDDMAGISCDGTGALKPSPCDSRALIHVLVVSGGAMEHDIRRACESYKLSRDGAEEEGEQFHHPVERDRSRSKGTDCHFGNVRYNSSGVASRNLFSCVMRCLVKRLAEAQRKEKANREAAPIPEAYYDVCSWAITPSTLWYMAGLWMADIFTEALQETGEVTDEKVASEEGLKRAKSTVLYWAARNGVPIFSPSLTDGDIMEFILTAGDTGVPLLQLDLVADIHRLNRLAMRSRRTGMMILGGGVVKHHVCNANLMRNGADYAVFLNNAQEFDGSDAGARPGEAVSWGKLRLDSTAVKVYSEVTIVFPLIVVHVFVAWVRMMRSKGKENIRS
chain 2: MSGVPFPSRVIGDLDYSNLLNIGQEEAIRCVLNAYPNIGLEATNLGRARRIVQRALNDNGMDGNKVMLAYTSNLISSGLRDTFACLARENRIGAVVTTAGGVEEDVIKCLGDTLVGDFALNDHALRNNGLNRVGNLLVPNDNYRNFEDFFVPLLRRLHEQQRDSRWTTKTTPSQIIAEIGAALESVRPNDCGSSLIYWCYRNDIPVFSPAFTDGSMGDMIYFYNYSRKGLVVDPVPDVRRLRQLGCKSTNVGRITCIVLGAGLPKHHLLRNVQADAVVYVTTGSDADGCESSCNVMADRANGLLSPNCDVVRVHGDATIISPLLLLRSSDGKEKVGVREDGN
B2: Trypanosoma brucei deoxyhypusine synthase prozyme paralog (TbDHSp), untagged (natural protein, T. brucei, UniProt Q4GZD1 1-342, looked up)
chain: MSGVPFPSRVIGDLDYSNLLNIGQEEAIRCVLNAYPNIGLEATNLGRARRIVQRALNDNGMDGNKVMLAYTSNLISSGLRDTFACLARENRIGAVVTTAGGVEEDVIKCLGDTLVGDFALNDHALRNNGLNRVGNLLVPNDNYRNFEDFFVPLLRRLHEQQRDSRWTTKTTPSQIIAEIGAALESVRPNDCGSSLIYWCYRNDIPVFSPAFTDGSMGDMIYFYNYSRKGLVVDPVPDVRRLRQLGCKSTNVGRITCIVLGAGLPKHHLLRNVQADAVVYVTTGSDADGCESSCNVMADRANGLLSPNCDVVRVHGDATIISPLLLLRSSDGKEKVGVREDGN

Assays:
purified protein [1] = substrate: NC(=O)c1ccc[n+]([C@@H]2O[C@H](COP(=O)(O)OP(=O)(O)OC[C@H]3O[C@@H](n4cnc5c(N)ncnc54)[C@H](O)[C@@H]3O)[C@@H](O)[C@H]2O)c1; assay: purified protein; type: biochemical, Trypanosoma brucei; settings: 78 μM [14C]spermidine, 15 μM TbeIF5A, 5 nM DHS; varied: cofactor
purified protein [2] = substrate: NCCCCNCCCN; assay: purified protein; type: biochemical, Trypanosoma brucei; settings: 1 mM NAD+, 15 μM TbeIF5A, 5 nM DHS; labelled compound
[3] = target: T1, Trypanosoma brucei deoxyhypusine …; assay: crystal structure

Binder	Km (purified protein [1]) [µM]	kcat (purified protein [1]) [s⁻¹]	Km (purified protein [2]) [µM]	kcat (purified protein [2]) [s⁻¹]	binding result [3]
B1	1.3 ± 0.18	0.15 ± 0.0045	9.8 ± 1.2	0.18 ± 0.01	–
B2	–	–	–	–	binds
